Assay results from US20100239578A1.
Where “and” joins values, the source holds several entries; their conditions need not be identical. Equal values may be shown once.

Legend:
[1] = target: NOD-derived murine SIRPα (NOD allele of Sirpα) on NOD mouse macrophages (mouse (NOD strain)) (UniProt P97797); test: graded mCD47-Fc on adherent fresh macrophages, anti-human Fc-HRP colorimetric read-out
[2] = target: NOD-derived murine SIRPα (NOD allele of Sirpα) on NOD mouse macrophages (mouse (NOD strain)) (UniProt P97797); test: graded hCD47-Fc on NOD macrophages, clustered (anti-SIRPα mAb pre-treatment) against unclustered
[3] = target: NOD-derived murine SIRPα (NOD allele of Sirpα) on NOD mouse macrophages (mouse (NOD strain)) (UniProt P97797); test: graded hCD47-Fc on unmanipulated fresh NOD macrophages (unclustered), anti-human Fc-HRP colorimetric read-out
[4] = target: NOD-derived murine SIRPα (NOD allele of Sirpα) on NOD mouse macrophages (mouse (NOD strain)) (UniProt P97797); test: graded hCD47-Fc on NOD macrophages pre-treated with a monoclonal antibody to the SIRPα ectodomain (clustered), anti-human Fc-HRP colorimetric read-out

UniProt P97797, sequence (P97797 32-513): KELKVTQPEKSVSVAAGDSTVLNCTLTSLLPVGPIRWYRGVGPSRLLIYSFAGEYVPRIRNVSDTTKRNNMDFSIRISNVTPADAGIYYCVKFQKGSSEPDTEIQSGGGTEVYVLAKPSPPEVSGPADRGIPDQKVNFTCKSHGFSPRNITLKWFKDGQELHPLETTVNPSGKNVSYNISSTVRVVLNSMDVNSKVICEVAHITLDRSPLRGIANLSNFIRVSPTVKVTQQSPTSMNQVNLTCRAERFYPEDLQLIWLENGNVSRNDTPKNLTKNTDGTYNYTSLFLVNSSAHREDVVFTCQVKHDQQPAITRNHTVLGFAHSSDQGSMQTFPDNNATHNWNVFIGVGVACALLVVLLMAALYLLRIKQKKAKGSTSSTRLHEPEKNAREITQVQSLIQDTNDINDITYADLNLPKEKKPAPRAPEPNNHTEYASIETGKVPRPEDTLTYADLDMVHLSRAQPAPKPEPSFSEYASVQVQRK

Row | fold lower Kd than the NOR SIRPα-mCD47 interaction [1] | fold rise in affinity, clustered against unclustered [2] | Kd [3] | Kd [4] | Substance
1 | 4.7 fold and > 4 fold | – | – | – | Mouse CD47-Fc (mCD47-Fc) fusion protein (from UniProt Q61735 19-133) (Fc fusion)
2 | – | > 10 fold | 1.6 nM | 0.16 nM | human CD47 IgV domain fused to human IgG Fc (hCD47-Fc), made in 293F cells (from UniProt Q08722 19-135) (Fc fusion)
